Results published in PMC8718552 (Frontiers in Immunology, 2021).

Key:
[1] = target: SARS-CoV-2 ORF8 (S84) (71–76) A mutant (SARS-CoV-2) (UniProt P0DTC8); experiment: SEC
[2] = target: SARS-CoV-2 ORF8 (S84) Ig-like domain (SARS-CoV-2) (UniProt P0DTC8); experiment: SEC
[3] = target: SARS-CoV-2 ORF8 (S84) Ig-like domain (SARS-CoV-2) (UniProt P0DTC8); experiment: non-reducing SDS-PAGE
[4] = target: CD14 on human CD14+ monocytes (UniProt P08571); experiment: flow cytometry on cells
non-reducing SDS-PAGE = target: the molecule itself; experiment: non-reducing SDS-PAGE

CD14 on human CD14+ monocytes, sequence (P08571 20-345): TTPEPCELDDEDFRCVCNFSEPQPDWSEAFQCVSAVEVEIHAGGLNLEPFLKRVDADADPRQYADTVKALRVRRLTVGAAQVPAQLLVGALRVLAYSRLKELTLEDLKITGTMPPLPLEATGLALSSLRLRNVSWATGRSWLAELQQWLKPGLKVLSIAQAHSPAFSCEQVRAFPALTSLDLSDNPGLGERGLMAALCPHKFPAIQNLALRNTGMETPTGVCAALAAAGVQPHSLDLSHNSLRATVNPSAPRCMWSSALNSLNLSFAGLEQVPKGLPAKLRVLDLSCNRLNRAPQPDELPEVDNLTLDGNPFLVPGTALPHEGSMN

Molecule: SARS-CoV-2 ORF8 (S84) (71–76) A mutant (from UniProt P0DTC8 16-121) (domain or fragment)
- stoichiometry N [1]: 2

Molecule: SARS-CoV-2 ORF8 (S84) Ig-like domain (from UniProt P0DTC8 16-121) (domain or fragment)
- stoichiometry N [2]: 2
- stoichiometry N [3]: 2

Molecule: SARS-CoV-2 ORF8 (L84) Ig-like domain (from UniProt P0DTC8) L84S
- response ([4]; parent: 48.7): 37.7%
- response ([4]; parent: 51.8): 32.7%
- response ([4]; parent: 54.1): 32.7%
- response ([4]; parent: 68.0): 47.9%
- response ([4]; parent: est. 56, read off a plot): 38%

B1: SARS-CoV-2 ORF8 (L84) (71–76) A (domain or fragment)
chain: FHQECSLQSCTQHQPYVVDDPCPIHFYSKWYIRVGARKSAPLIELCVDEAGSKSPAAAAAAGNYTVSCLPFTINCQEPKLGSLVVRCSFYEDFLEYHDVRVVLDFI
- binding result (non-reducing SDS-PAGE): binds
